B1: H1 K1: humanised mAb, first approach CDR-grafting; VH H1 (SEQ ID NO: 16), VL K1 (SEQ ID NO: 15) (antibody, V domains shown)
VH: QVQLVQSGAEVKKPGASVKVSCKASGYTLSSYWMHWVRQAPGQGLEWMGIILPGSGSTSYAQKFQGRVTMTRDTSTSTVYMELSSLRSEDTAVYYCAREGWYFDVWGAGTTVTVSS
VL: DVVMTQSPLSLPVTLGQPASISCRSSQSLLYSNGNTHLNWFQQRPGQSPRRLIYLVSNRDSGVPDRFSGSGSGTDFTLKISRVEAEDVGVYYCVQGTHFPYTFGGGTKLEIK
modifications: VH-H1; VL-K1
B2: H5 K5: humanised mAb, third approach (Kabat); VH H5 (SEQ ID NO: 22), VL K5 (SEQ ID NO: 21) (antibody, V domains shown)
VH: QVQLQQSGAELKKPGASVKISCKASGYTLSSYWLEWVRQRPGQGLEWIGEILPGSGSTNYNEKFKGRATFTADTSTNTAYMELSSLTSEDSAVYYCAREGWYFDVWGQGTTVTVSS
VL: DIVMTQSPLSLPVTLGQPASISCKSSQSLLYSNGNTHLNWYQQRPGQSPRRLIYLVSKLDSGVPDRFSGSGSGTDFTLKISRVEAEDVGVYYCVQGTHFPYTFGGGTKLEIK
modifications: VH-H5; VL-K5
B3: H3 K1: humanised mAb combining heavy chain H3 (SEQ ID NO: 20) and light chain K1 (SEQ ID NO: 15) (antibody, V domains shown)
VH: QVQLVQSGAEVKKPGASVKVSCKASGYTLSSYWIHWVRQAPGQGLEWIGWILPGSGSTNYAQKFQGKATITADKSTSTAYMELSSLRSEDTAVYYCAREGWYFDVWGQGTLVTVSS
VL: DVVMTQSPLSLPVTLGQPASISCRSSQSLLYSNGNTHLNWFQQRPGQSPRRLIYLVSNRDSGVPDRFSGSGSGTDFTLKISRVEAEDVGVYYCVQGTHFPYTFGGGTKLEIK
modifications: VH-H3; VL-K1
B4: H5 K7: humanised mAb combining heavy chain H5 (SEQ ID NO: 22) and light chain K7 (SEQ ID NO: 25) (antibody, V domains shown)
VH: QVQLQQSGAELKKPGASVKISCKASGYTLSSYWLEWVRQRPGQGLEWIGEILPGSGSTNYNEKFKGRATFTADTSTNTAYMELSSLTSEDSAVYYCAREGWYFDVWGQGTTVTVSS
VL: DIVMTQSPLSLPVTLGQPASISCKSSQSLLYSNGNTHLNWYLQRPGQSPKRLIYLVSKLDSGVPDRFSGSGSGTDFTLKISRVEAEDVGVYYCVQGTHFPYTFGGGTKLEIK
modifications: VH-H5; VL-K7
B5: H6 K1: humanised mAb combining heavy chain H6 (SEQ ID NO: 24) and light chain K1 (SEQ ID NO: 15) (antibody, V domains shown)
VH: QVQLQQSGAELKKPGASVKISCKASGYTLSSYWIHWVRQRPGQGLEWIGEILPGSGSTNYNEKFKGRATFTADTSTNTAYMELSSLTSEDSAVYYCAREGWYFDVWGQGTTVTVSS
VL: DVVMTQSPLSLPVTLGQPASISCRSSQSLLYSNGNTHLNWFQQRPGQSPRRLIYLVSNRDSGVPDRFSGSGSGTDFTLKISRVEAEDVGVYYCVQGTHFPYTFGGGTKLEIK
modifications: VH-H6; VL-K1
B6: H3/K3: humanised recombinant Ab, second approach; VH H3 (SEQ ID NO: 20), VL K3 (SEQ ID NO: 19) (antibody, V domains shown)
VH: QVQLVQSGAEVKKPGASVKVSCKASGYTLSSYWIHWVRQAPGQGLEWIGWILPGSGSTNYAQKFQGKATITADKSTSTAYMELSSLRSEDTAVYYCAREGWYFDVWGQGTLVTVSS
VL: DIVMTQTPLSLSVTPGQPASISCKSSQSLLYSNGNTHLNWYLQRPGQSPQLLIYLVSNRASGVPDRFTGSGSGTDFTLKISRVEAEDVGVYYCVQGTHFPYTFGGGTKVEIK
modifications: VH-H3; VL-K3
B7: H5 K3: humanised mAb combining heavy chain H5 (SEQ ID NO: 22) and light chain K3 (SEQ ID NO: 19) (antibody, V domains shown)
VH: QVQLQQSGAELKKPGASVKISCKASGYTLSSYWLEWVRQRPGQGLEWIGEILPGSGSTNYNEKFKGRATFTADTSTNTAYMELSSLTSEDSAVYYCAREGWYFDVWGQGTTVTVSS
VL: DIVMTQTPLSLSVTPGQPASISCKSSQSLLYSNGNTHLNWYLQRPGQSPQLLIYLVSNRASGVPDRFTGSGSGTDFTLKISRVEAEDVGVYYCVQGTHFPYTFGGGTKVEIK
modifications: VH-H5; VL-K3

What was measured:
C. auris [1] = test: EUCAST antifungal MIC assay, drug alone and combined with hmAb 2G8; type: cell-based; settings: Candidozyma auris; 48 hours, drug alone; read-out: MIC50
Protocol: To evaluate the susceptibility of C. auris to caspofungin, amphotericin B and their combination with hmAb 2G8, we followed the EUCAST antifungal MIC method (EUCAST E.DEF. 7.3). Antifungal drugs were purchased from Sigma-Aldrich.
The caspofungin and amphotericin B range concentrations analysed were reported in EUCAST document. Those concentrations were tested alone and in combination with 0.25, 2.5, 25 and 250 μg/ml of humanised antibody.
The plates microdilution and the yeast inoculum were prepared as reported in EUCAST document. The wells with 100 μl of 2X final antifungal drugs concentration in RPMI 2% G medium were inoculated with 100 μl (1-5×10^5 CFU/ml) of yeast suspension of C. auris. The monoclonal antibody was added to the samples of yeast suspension to test the combination drug-antibody. The plates were incubated at 37° C. for 24 and 48 hours and read after incubation at 405 nm. The assays were performed in triplicate.
As reported in EUCAST, echinocandins' MIC50 is the lowest drug concentration giving inhibition of≥50% of that of the drug-free control (dotted line). For amphotericin B, MIC50 is the same as for echinocandins while MIC90 is considered as the lowest concentration giving a growth inhibition of≥90% of that of the drug-free control (dotted bold line). […] At 48 hours (D), amphotericin B alone has its MIC50 and 90 at 1 μg/ml.

C. auris [2] = test: Time-kill curve, drug alone and combined with hmAb 2G8; type: cell-based
Text: To support and deepen the data coming from MIC assays, a time-kill curve was elaborated to evaluate how the hmAb 2G8 combined with caspofungin or amphotericin B could improve their basal activity on C. auris.

C. auris [3] = settings: different C. auris strains, literature; cited from earlier work
[4] = ELISA assay on laminarin-coated plates; type: binding; settings: for Abs 405 nm: ELISA of supernatants of humanised mAbs; for activity in ELISA test: recombinant antibody, laminarin-coated plates
Protocol: The activity of the purified antibody was then tested by ELISA assay. 96-well plates were coated with 50 μg/ml Laminarin (Sigma-Aldrich, L9634) in 0.05 M carbonate buffer pH 9.6 overnight at 4° C. Nonspecific interactions were blocked with 100 μL/well blocking solution, 3% (w/v) BSA in PBS-Tween 20 (8 g/L NaCl, 0.2 g/L KH2PO4, 2.9 g/L Na2HPO4·12 H2O, 0.2 g/L KCI, 0.05% (v/v) Tween 20, pH 7.4) at 37° C. for 1 h. The plates were then incubated with decreasing concentrations of hmAb 2G8_first approach (comparative purpose) (from 3.12 μg/ml to 0.003 μg/ml, each concentration was tested in triplicate) in blocking solution for 2 h at 37° C. At the same temperature and for the same time, 100 μL Goat anti-human-HRP diluted 1:1000 in blocking solution was poured in each well. After every single passage the plates were washed 5 times with PBS-Tween 20. To reveal the binding, 100 μl of 5 mg-ABTS tablet (Roche Diagnostics) dissolved in 12 ml of sodium citrate (0.05 M, pH 3) and supplemented with 1:1000 dilution hydrogen peroxide (Carlo Erba) was added and after 15, 30, 45 and 60 min the absorbance at 405 nm was measured. For the whole measuring time the plates were left in the dark. IC50 analysis of ELISA test was performed with Prism. The TEST was performed in triplicate.
The surnatants collected from the obtained humanised mAb were tested in ELISA test.
Four supernatants from hmAb according to the invention (H5/K3; H5/K1; H5/K7; H5/K5) were purified to confirm the data. 8 scalar dilutions, starting from 5 μg/ml, were tested.
The purified humanised mAb 2G8 H5/K1 was then tested in an ELISA assay using laminarin as a target.

| Molecule | Abs 405 nm [4] | activity in ELISA test [4] | further results |
| --- | --- | --- | --- |
| CC[C@H](C)C[C@H](C)CCCCCCCCC(=O)N[C@H]1C[C@@H](O)[C@@H](NCCN)NC(=O)[C@@H]2[C@@H](O)CCN2C(=O)[C@H]([C@H](O)CCN)NC(=O)[C@H]([C@H](O)[C@@H](O)c2ccc(O)cc2)NC(=O)[C@@H]2C[C@@H](O)CN2C(=O)[C@H]([C@@H](C)O)NC1=O [caspofungin] |  |  | MIC50 (C. auris [1]): 0.25 µg/mL; fungistatic effect, log (time-kill curve) (C. auris [2]; CAS 0.125 μg/ml, 24 h): −1.88; fungistatic effect, log (time-kill curve) (C. auris [2]; CAS 0.125 μg/ml, 48 h): −2.10; fungistatic effect, log (time-kill curve) (C. auris [2]; CAS 0.25 μg/ml, 24 h, combination with 250 μg/ml hmAb 2G8 H5K1): −1.11; fungistatic effect, log (time-kill curve) (C. auris [2]; CAS 0.25 μg/ml, 48 h, combination with 250 μg/ml hmAb 2G8 H5K1): −1.71 |
| C[C@@H](c1ncncc1F)[C@](O)(Cn1cncn1)c1ccc(F)cc1F [voriconazole] |  |  | MIC (C. auris [3]): about 16 mg/L |
| B1 | 0.35 | not active |  |
| B2 | 1.61 | showed some activity | activity / affinity compared with murine 2G8 ([4]; ELISA): lower than the activity observed for the murine 2G8 |
| B3 | 0.4 |  |  |
| B4 | 0.82 |  |  |
| B5 | 0.27 |  |  |
| B6 |  | not active |  |
| B7 | 2.47 |  |  |

— US20230406912A1, “HUMANISED ANTIBODIES AGAINST PATHOGENIC FUNGI” (priority 2020, published 2023)
